Assay results: the supplement of paper PMC10065799, “High-throughput profiling of sequence recognition by tyrosine kinases and SH2 domains using bacterial peptide display” (eLife, 2023)

What was measured:
Jak2 = Jak2 (UniProt O60674); assay: phosphorylation enrichment, bacterial display (enrichment ratio); higher = better substrate or ligand; peptides without Tyr show the background
EPHB2 = EPHB2 (UniProt P29323); assay: as above
EPHB1 = EPHB1 (UniProt P54762); assay: as above
MERTK = MERTK (UniProt Q12866); assay: as above
Fer (mouse) = assay: as above
FGFR3 = FGFR3 (UniProt P22607); assay: as above
c-Src = assay: as above
Fyn = Fyn (UniProt P06241); assay: as above
Hck = Hck (UniProt P08631); assay: as above
Fes = Fes (UniProt P07332); assay: as above
c-Abl (mouse) = assay: as above
AncSZ = assay: as above
FGFR1 = FGFR1 (UniProt P11362); assay: as above
c-Src SH2 = assay: SH2 binding enrichment of the phosphorylated peptide, bacterial display (enrichment ratio); higher = better substrate or ligand; peptides without Tyr show the background
SHP2-C SH2 = assay: as above
Grb2 SH2 = Grb2 SH2 (UniProt P62993); assay: as above
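For SH2 binding enrichment of the phosphorylated peptide, bacterial display in this document: peptide library displayed on the E. coli surface as eCPX fusions, selected cells deep-sequenced, score is each peptide's frequency after selection divided by its frequency in the input.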
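For phosphorylation enrichment, bacterial display in this document: 11-residue human phosphosite peptides and single-mutation variants displayed on the E. coli surface, counted by deep sequencing, each peptide's frequency after selection divided by its frequency in the unselected input library; frequency after pTyr selection over input frequency; kinase dosed for 20-30% of maximal phosphorylation in three min.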

Chain of FGFR1 (P11362 whole entry, looked up): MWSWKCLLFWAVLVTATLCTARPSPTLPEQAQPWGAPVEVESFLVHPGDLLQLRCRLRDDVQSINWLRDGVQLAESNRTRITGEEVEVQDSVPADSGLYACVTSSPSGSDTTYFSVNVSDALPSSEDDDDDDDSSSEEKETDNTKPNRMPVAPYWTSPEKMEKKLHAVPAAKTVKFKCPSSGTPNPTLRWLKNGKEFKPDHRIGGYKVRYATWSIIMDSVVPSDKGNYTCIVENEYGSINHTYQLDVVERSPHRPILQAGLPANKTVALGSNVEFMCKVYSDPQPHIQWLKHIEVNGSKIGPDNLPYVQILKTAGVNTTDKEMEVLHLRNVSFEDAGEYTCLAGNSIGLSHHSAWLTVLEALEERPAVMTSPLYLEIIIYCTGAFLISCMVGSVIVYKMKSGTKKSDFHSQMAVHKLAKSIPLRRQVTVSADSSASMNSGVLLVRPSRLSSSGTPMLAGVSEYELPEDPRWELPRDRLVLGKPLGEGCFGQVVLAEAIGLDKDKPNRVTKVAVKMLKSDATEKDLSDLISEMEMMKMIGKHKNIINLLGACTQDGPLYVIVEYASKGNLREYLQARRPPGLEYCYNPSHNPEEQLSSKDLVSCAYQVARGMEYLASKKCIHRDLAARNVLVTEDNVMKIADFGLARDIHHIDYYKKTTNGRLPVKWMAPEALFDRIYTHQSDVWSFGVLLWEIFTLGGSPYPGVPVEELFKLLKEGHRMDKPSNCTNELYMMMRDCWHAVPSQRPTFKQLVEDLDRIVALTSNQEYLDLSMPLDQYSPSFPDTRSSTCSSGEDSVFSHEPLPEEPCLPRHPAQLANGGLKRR
Chain of FGFR3 (P22607 whole entry, looked up): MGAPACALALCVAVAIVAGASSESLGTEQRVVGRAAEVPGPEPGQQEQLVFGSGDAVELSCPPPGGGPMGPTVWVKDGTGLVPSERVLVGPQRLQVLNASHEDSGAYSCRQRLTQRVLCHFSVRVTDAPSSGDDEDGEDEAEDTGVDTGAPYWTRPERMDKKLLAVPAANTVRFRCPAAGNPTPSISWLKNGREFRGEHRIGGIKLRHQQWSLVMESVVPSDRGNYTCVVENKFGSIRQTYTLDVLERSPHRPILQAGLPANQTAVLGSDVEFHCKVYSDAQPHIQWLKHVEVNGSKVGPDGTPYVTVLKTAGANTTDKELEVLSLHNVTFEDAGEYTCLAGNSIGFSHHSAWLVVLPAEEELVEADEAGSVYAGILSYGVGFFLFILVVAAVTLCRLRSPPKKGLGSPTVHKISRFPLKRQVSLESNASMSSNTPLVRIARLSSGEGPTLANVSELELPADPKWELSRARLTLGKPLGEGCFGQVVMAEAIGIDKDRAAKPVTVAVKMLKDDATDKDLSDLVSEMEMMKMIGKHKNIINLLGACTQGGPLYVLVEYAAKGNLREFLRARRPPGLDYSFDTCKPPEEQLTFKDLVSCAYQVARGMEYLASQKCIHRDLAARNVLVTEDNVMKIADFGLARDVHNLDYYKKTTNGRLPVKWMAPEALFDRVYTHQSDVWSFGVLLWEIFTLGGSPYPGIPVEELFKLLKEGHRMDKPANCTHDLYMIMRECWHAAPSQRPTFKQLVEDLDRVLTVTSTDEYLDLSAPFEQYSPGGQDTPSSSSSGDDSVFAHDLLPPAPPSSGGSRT
Chain of Fyn (P06241 whole entry, looked up): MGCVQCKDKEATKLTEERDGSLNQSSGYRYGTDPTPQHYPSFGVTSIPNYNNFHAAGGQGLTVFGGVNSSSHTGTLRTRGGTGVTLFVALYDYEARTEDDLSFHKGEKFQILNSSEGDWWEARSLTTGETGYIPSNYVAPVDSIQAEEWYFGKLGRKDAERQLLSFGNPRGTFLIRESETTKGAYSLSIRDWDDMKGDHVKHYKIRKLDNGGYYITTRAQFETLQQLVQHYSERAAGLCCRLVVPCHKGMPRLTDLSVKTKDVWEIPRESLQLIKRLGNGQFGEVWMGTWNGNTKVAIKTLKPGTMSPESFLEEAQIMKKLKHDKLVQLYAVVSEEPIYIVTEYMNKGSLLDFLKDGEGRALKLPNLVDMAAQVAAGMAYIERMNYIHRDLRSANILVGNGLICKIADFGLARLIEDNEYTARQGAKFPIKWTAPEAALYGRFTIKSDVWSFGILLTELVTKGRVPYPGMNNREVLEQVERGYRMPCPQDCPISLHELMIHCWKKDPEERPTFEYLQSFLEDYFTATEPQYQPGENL
Chain of EPHB2 (P29323 whole entry, looked up): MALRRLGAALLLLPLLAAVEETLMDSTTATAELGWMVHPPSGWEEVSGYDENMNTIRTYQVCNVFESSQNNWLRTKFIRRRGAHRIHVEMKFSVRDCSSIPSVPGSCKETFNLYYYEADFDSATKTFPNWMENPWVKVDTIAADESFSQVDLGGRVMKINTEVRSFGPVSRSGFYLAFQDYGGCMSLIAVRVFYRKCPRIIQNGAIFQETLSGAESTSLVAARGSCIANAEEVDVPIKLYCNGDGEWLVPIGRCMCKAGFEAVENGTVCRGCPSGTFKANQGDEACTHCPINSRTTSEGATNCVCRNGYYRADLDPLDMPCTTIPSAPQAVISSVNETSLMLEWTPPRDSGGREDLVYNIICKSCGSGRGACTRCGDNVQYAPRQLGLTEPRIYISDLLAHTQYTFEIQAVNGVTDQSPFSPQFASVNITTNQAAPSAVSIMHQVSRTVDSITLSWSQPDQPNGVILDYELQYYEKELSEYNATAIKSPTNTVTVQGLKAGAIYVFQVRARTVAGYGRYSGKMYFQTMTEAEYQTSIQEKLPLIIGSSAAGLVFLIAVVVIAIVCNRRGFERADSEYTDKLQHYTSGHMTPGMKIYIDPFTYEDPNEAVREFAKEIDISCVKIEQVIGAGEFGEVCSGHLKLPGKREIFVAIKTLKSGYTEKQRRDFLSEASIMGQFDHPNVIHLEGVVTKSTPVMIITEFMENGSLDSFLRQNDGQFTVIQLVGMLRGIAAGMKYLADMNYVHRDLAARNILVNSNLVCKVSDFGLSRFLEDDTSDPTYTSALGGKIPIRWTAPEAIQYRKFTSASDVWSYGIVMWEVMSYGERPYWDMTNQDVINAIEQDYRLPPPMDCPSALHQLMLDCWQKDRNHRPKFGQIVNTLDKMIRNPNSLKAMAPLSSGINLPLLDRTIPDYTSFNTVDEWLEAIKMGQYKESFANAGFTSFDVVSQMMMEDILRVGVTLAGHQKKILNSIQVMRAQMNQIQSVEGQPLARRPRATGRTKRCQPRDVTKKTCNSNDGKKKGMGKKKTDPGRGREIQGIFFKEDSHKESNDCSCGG
Chain of MERTK (Q12866 whole entry, looked up): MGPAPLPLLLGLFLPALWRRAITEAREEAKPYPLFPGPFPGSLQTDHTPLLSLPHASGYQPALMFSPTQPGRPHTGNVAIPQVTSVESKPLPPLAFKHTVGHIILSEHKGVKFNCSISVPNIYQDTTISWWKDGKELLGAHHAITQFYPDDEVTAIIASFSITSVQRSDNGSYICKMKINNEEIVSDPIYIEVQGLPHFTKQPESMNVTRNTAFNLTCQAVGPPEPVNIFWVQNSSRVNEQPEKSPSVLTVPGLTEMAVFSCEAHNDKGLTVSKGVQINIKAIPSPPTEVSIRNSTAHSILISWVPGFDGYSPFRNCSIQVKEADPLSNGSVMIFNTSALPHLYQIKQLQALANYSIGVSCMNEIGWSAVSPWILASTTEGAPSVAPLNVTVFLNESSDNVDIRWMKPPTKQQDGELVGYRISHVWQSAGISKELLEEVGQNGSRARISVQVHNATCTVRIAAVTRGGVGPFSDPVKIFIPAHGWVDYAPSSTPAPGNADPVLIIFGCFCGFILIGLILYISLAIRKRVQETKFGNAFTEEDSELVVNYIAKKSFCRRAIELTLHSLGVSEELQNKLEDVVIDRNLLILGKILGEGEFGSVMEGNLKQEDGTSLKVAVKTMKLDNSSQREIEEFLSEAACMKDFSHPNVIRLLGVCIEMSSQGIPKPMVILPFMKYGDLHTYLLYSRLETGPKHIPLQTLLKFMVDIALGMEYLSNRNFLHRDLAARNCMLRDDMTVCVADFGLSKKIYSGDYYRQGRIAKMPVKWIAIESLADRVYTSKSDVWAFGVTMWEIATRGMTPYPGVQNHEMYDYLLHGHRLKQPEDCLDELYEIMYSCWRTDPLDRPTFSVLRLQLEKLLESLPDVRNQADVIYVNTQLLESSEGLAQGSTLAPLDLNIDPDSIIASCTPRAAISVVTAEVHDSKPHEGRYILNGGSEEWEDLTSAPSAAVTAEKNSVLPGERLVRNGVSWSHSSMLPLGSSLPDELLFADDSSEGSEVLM
Chain of Fes (P07332 whole entry, looked up): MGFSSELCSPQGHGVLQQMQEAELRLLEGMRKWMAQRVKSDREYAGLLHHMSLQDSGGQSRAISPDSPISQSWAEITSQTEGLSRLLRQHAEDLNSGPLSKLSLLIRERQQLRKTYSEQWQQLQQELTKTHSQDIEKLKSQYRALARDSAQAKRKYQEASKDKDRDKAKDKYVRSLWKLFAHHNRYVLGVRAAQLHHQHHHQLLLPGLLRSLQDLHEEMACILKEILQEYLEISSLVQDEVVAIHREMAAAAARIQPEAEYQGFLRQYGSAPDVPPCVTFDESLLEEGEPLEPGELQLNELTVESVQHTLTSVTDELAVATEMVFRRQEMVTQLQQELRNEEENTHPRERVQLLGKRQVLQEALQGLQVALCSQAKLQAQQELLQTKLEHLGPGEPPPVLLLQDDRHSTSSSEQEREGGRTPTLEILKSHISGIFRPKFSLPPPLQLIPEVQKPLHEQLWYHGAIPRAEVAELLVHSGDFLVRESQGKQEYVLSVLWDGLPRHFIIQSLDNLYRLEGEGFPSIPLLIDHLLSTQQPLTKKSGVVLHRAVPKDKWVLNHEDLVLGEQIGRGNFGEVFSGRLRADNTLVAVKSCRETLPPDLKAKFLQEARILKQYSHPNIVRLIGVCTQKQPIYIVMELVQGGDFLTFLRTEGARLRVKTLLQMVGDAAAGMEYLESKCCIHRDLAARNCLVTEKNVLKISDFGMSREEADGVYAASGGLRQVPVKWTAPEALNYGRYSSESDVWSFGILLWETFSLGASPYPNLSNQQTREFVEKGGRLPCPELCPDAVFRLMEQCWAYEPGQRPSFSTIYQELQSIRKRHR

Row | Sequence | SH2 binding enrichment (c-Src SH2) | SH2 binding enrichment (SHP2-C SH2) | SH2 binding enrichment (Grb2 SH2) | phosphorylation enrichment (Jak2) | phosphorylation enrichment (EPHB2) | phosphorylation enrichment (EPHB1) | phosphorylation enrichment (MERTK) | phosphorylation enrichment (Fer (mouse)) | phosphorylation enrichment (FGFR3) | phosphorylation enrichment (c-Src) | phosphorylation enrichment (Fyn) | phosphorylation enrichment (Hck) | phosphorylation enrichment (Fes) | phosphorylation enrichment (c-Abl (mouse)) | phosphorylation enrichment (AncSZ) | phosphorylation enrichment (FGFR1)
1 | FDNPIYQKTTE [LDLR_Y828_V827I] | 0.632 | 0.966 | 1.03 | 0.681 | 1.18 | 1.16 | 2.38 | 1.59 | 0.49 | 1.44 | 1.1 | 2.76 | 0.751 | 1.82 | 0.833 | 0.543
2 | IFETDYFQKGG [INSR_Y1189_R1191Q_YF] | 0.492 | 0.438 | 0.948 | 0.981 | 0.401 | 0.421 | 0.386 | 0.358 | 0.876 | 0.492 | 0.502 | 0.473 | 1.01 | 0.662 | 1.24 | 0.468
3 | GQAPGYSYTAA [CYCS_Y47] | 0.791 | 0.659 | 0.873 | 0.615 | 0.5 | 0.483 | 0.438 | 0.433 | 0.481 | 0.416 | 0.471 | 0.502 | 0.665 | 0.56 | 0.601 | 0.43
4 | VRFMADTDETF [F8_Y450_Y450D] | 0.403 | 0.542 | 0.676 | 1.07 | 0.644 | 0.63 | 0.451 | 0.628 | 0.755 | 0.471 | 0.54 | 0.59 | 1.3 | 0.856 | 1.21 | 0.505
5 | QQTFTYDSGIH [JUP_Y22_YF] | 0.563 | 0.809 | 0.673 | 0.985 | 1.33 | 1.35 | 0.793 | 0.896 | 1.42 | 0.95 | 1.18 | 1.85 | 1.78 | 0.999 | 1.8 | 0.984
6 | GVTLLCYGRYN [ADGRD1_Y85_Y85C] | 0.486 | 0.806 | 0.753 | 1.23 | 0.682 | 0.707 | 0.397 | 0.563 | 0.908 | 0.97 | 0.708 | 0.508 | 1.55 | 0.975 | 1.31 | 0.435
7 | FSQQVYRVNLS [FAT4_Y480] | 0.48 | 0.882 | 0.827 | 0.762 | 0.48 | 0.563 | 0.409 | 0.495 | 0.516 | 0.623 | 1.01 | 0.392 | 0.729 | 0.532 | 0.658 | 0.49
8 | RSGIFYKPESL [L2HGDH_Y103_H98R_YF] | 0.572 | 0.894 | 0.913 | 0.647 | 0.567 | 0.547 | 0.499 | 0.458 | 0.702 | 0.751 | 0.512 | 0.716 | 0.866 | 0.706 | 0.994 | 0.572
9 | EKFVPYYDLFM [IPO5_Y530] | 3.84 | 1.46 | 1.72 | 1.47 | 6.87 | 4.82 | 7.26 | 3.71 | 5.89 | 4.22 | 3.05 | 3.27 | 1.18 | 0.787 | 1.2 | 6.89
10 | FLAVGYHKLHI [IDS_Y225_P228L] | 1.25 | 1.42 | 1.36 | 1.13 | 0.575 | 0.545 | 0.471 | 0.432 | 0.804 | 0.462 | 0.647 | 0.427 | 1.14 | 0.833 | 1.03 | 0.447
11 | TVLEHYRRTHC [MYBPC3_Y1119] | 0.713 | 1.16 | 1.05 | 0.606 | 0.681 | 0.468 | 0.569 | 0.408 | 0.519 | 0.395 | 0.52 | 0.5 | 0.672 | 0.532 | 0.526 | 0.438
12 | RAILNYIASKF [GSTA3_Y74_YF] | 0.461 | 0.611 | 0.927 | 1.29 | 0.86 | 0.534 | 1.7 | 0.994 | 0.861 | 1 | 0.66 | 0.854 | 1.73 | 1.96 | 1.84 | 1.08
13 | SAEEDYIADAK [KCNT1_Y876_M877I] | 0.683 | 0.709 | 0.983 | 1.2 | 0.703 | 0.602 | 0.456 | 0.608 | 0.797 | 0.608 | 0.515 | 0.554 | 1.48 | 0.931 | 1.22 | 0.617
14 | SLNEEYAKNKT [MSH2_Y563_T564A] | 0.482 | 0.759 | 0.949 | 0.791 | 0.579 | 0.394 | 0.43 | 0.318 | 0.538 | 0.45 | 0.413 | 0.362 | 0.877 | 0.674 | 0.765 | 0.472
15 | ANFTEYVATRW [CDKL5_Y171_YF] | 0.523 | 0.595 | 0.806 | 0.781 | 0.922 | 0.834 | 0.49 | 0.515 | 0.814 | 0.466 | 0.57 | 0.523 | 0.947 | 0.682 | 0.977 | 0.707

Further lines, with some results ahead:

Row | SH2 binding enrichment (c-Src SH2) | SH2 binding enrichment (SHP2-C SH2) | SH2 binding enrichment (Grb2 SH2) | Sequence | phosphorylation enrichment (Jak2) | phosphorylation enrichment (EPHB2) | phosphorylation enrichment (EPHB1) | phosphorylation enrichment (MERTK) | phosphorylation enrichment (Fer (mouse)) | phosphorylation enrichment (FGFR3) | phosphorylation enrichment (c-Src) | phosphorylation enrichment (Fyn) | phosphorylation enrichment (Hck) | phosphorylation enrichment (Fes) | phosphorylation enrichment (c-Abl (mouse)) | phosphorylation enrichment (AncSZ) | phosphorylation enrichment (FGFR1)
16 | 0.476 | 0.679 | 0.674 | LAIERYVVVCK [RHO_Y136] | 1.9 | 1.09 | 0.938 | 0.732 | 1.32 | 1.21 | 0.859 | 0.597 | 0.862 | 2.33 | 1.51 | 1.83 | 0.766
17 | 1.23 | 1.3 | 1.38 | LLKAGYQGVLR [TTPA_Y100_H101Q] | 0.55 | 0.366 | 0.648 | 0.459 | 0.425 | 0.565 | 0.311 | 0.265 | 0.713 | 0.73 | 0.442 | 0.502 | 0.67
18 | 0.98 | 1.66 | 1.51 | NTGFFYDLFGG [PTPN11_Y63_D61Y_YF] | 1.19 | 0.659 | 0.693 | 3.4 | 0.77 | 0.786 | 2.85 | 2.42 | 1.52 | 1.31 | 0.869 | 1.24 | 0.509
19 | 0.443 | 0.834 | 0.645 | GFWPRYVKVGS [NOG_Y172_R167G] | 0.695 | 0.532 | 0.594 | 0.447 | 0.388 | 0.653 | 0.402 | 0.493 | 0.532 | 0.97 | 0.568 | 0.746 | 0.554
20 | 0.414 | 0.796 | 0.774 | EEALFYLTRVE [SET_Y119_H118Y_YF] | 1.61 | 0.828 | 0.967 | 0.472 | 0.835 | 1.05 | 0.557 | 0.58 | 0.68 | 1.67 | 1.03 | 1.43 | 0.599
21 | 0.747 | 0.761 | 1.01 | CEDGNYSPEIS [PTDSS1_Y424_T423N] | 0.975 | 0.871 | 0.612 | 0.486 | 0.461 | 0.637 | 0.618 | 0.458 | 0.668 | 1.06 | 0.785 | 1.18 | 0.643
22 | 0.502 | 0.715 | 0.655 | GYCSWYRGWAP [TIMP3_Y195] | 1.32 | 0.712 | 0.8 | 0.975 | 0.691 | 1 | 1.33 | 0.671 | 1.25 | 1.53 | 1.04 | 1.38 | 0.807
23 | 1.09 | 1.27 | 2 | QRCFVYFFSFL [PTEN_Y176_R173C_YF] | 2.19 | 0.526 | 1.13 | 0.69 | 1.06 | 1.16 | 1.48 | 1.47 | 0.65 | 2.21 | 1.3 | 1.48 | 0.765
24 | 0.83 | 0.843 | 1.04 | RLSVDYGKKSK [TUBA3E_Y161_S162G] | 0.922 | 0.671 | 0.471 | 0.389 | 0.377 | 0.642 | 0.396 | 0.702 | 0.511 | 0.879 | 0.553 | 0.613 | 0.534
25 | 0.56 | 0.581 | 0.81 | VPVPGYTKVPE [SPRR3_Y146_L149V] | 0.769 | 0.541 | 0.365 | 0.501 | 0.525 | 0.789 | 0.398 | 0.494 | 0.526 | 0.75 | 0.615 | 0.776 | 0.437
26 | 0.617 | 0.646 | 0.751 | VSGIPYSQPKQ [NEU1_Y251_G252S] | 0.943 | 0.4 | 0.234 | 0.326 | 0.467 | 0.443 | 0.388 | 0.398 | 0.358 | 0.474 | 0.416 | 0.467 | 0.389
27 | 0.46 | 0.871 | 0.769 | AEARMYGVLPW [PLP1_Y207_D203E] | 0.65 | 1.05 | 0.692 | 1.54 | 0.477 | 0.559 | 4.81 | 7.15 | 7.47 | 0.811 | 0.989 | 0.767 | 0.502
28 | 0.524 | 0.555 | 0.804 | PGVDIYVSPNM [PADI3_Y51_I52V] | 1.24 | 1.46 | 1.17 | 0.629 | 0.708 | 0.781 | 0.885 | 1.52 | 2.76 | 1.71 | 2.3 | 1.37 | 0.809
29 | 0.769 | 0.805 | 0.778 | LSRDVYEEDSF [RET_Y900_YF] | 1.7 | 0.908 | 1.07 | 0.819 | 0.946 | 0.89 | 0.828 | 0.573 | 0.875 | 2.02 | 1.57 | 1.77 | 0.813
